Assay results taken from a protein production outcome set (Wang et al. 2014).

Assay: label from the status in PepcDB records

| Sequence | protein production |
| --- | --- |
| MPYERKIINDPVFGFINIPKGLLYDIVRHPLLQRLTRIKQVGLSSVVYPGAQHTRFQHSLGAFYLMSEAITQLTSKGNFIFDSEAEAVQAAILLHDIGHGPFSHVLEDTIVQGVSHEEISLMLMERMNKEMNGQLSLAIQIFKDEYPKRFLHQLVSGQLDMDRLDYLRRDSFYTGVTEGNIGSARIIKMLDVADDRLVIESKGIYSIENFLTARRLMYWQVYLHKTSVAYERMLISTLLRAKELASQGVELFASPALHFFLYNDINHTEFHNNPDCLENFIQLDDNDIWTALKVWSNHPDKVLSTLSLGMINRNIFKVENSAEPIGEDRIKELTLQISQQLGITLSEANYFVSTPSIEKNMYDPADDSIDIIYKDGTIKNIAEASDMLNISLLSKKVKKYYLCYQRLHR | not failed |
| MKKKMITTIIAMLVIVVMLLPTKLGPVIDKYNPFYKTKEYYTVVNTIGQHVGDEWYEYEFIAFDERGKEQKIKKTVKHMLKRDEMLKVYAKGRYGESIEEIEAVNIPINAKSKLLSMRLEHHHHHH | not failed |
| MTKKQKEILFCDYFEEWVEVYKVGAIAKITLAKYYNAAKQLRDLCPKLFISDFDRREYQRIINVYAETHEKQTVKDFHHHVKACIKDLFHDGLIDKDPTYRVVIKGAEPTRAKLEHHHHHH | failed |
| MSIPLLEYAPSSQNQRVEGYEVPNEDTPTIYRLAAAIDDADVDAIIWAGYRQIFSEHLIIKSNRQSFLESQLRNRAINVRDFIRGLGKSEVYRTQVADLNSNYRLVDITLKRFLGRAAYNQDEEIAWSIVIGSQGLHGFIDALLDSDEYRENFGDDIVPYQRRRYKDRPFNLVNPRYNAYWRDRQTLNALGGRSFYSARTSGTLTKDDIRRAIPANFMALAGKILTPERNYQRTIASVTSQIKDIKIPDTSREVTTPEVTVKPVAVALPYRYIPGNKTT | failed |
| MADWTRAQSSGAVEEILDRENKRMADSLASKVTRLKSLALDIDRDTEDQNRYLDGMDSDFTSVTGLLTGSVKRFSTVARSGRDNRKLLCGMAVVLIVAFFILSYLLSRTRT | failed |
| MGSSSYAVIPGAAPRSGRRSIRAVLVLALTAGVATVVPAAQADTSTPAAAPVAAKPYMGWSSWSMQSSKYPGLNPDGDYSYLTEANVLKQTDALASKLKKYGYDHVNIDAGWWMDKNWKTQFDQYGRQTPDPVRFPHGMKSVADHIHSKGLKAGIYLPVGLEKGAYGDGKTPISKAPGCTTADIVYSDLRTTNGWDNAYKIDFDKSCAQKYIDSQAQMFADWGYDFLKLDGVGPGSFKSGDNYNNVADVAAWQKAIAATGRPIHLELSWSLDIGHAADWKKYSNGWRIDTDIECYCNTLVTWENSVNDRWDDAPAWSSKAGPGGWNDLDAIDVGNGEMDGLTKAERQSYMTLWAINKSPLFTGDDLTKLDSYGVSLLTNKEVIAVDQNTSPVARPVTPVGDQQVWGTKNADGSYTVALFNLGDSPASVTAHWASFGFTGNASVRDLWNKTNLGTHKNKITEALPAHGSRLFTIKPGGGTLATTGYEAEAAANTLSGNASVGGCDACSGGKKVGNLYTGGKLRINDITVKKDGIYTVKVAYVSGDPRSVTVLSNSGNGTSLKFPSTGDWSTAETVSVQLALKAGSNTITFDSGSGYAPDIDRIVVPQSV | failed |
| MRIAALFTCIIGVFMLATSVQAAQPADITRLSNGLTVLVLKDDRFPLASLRLYVHAGSAFETPEEAGISHLLEHMVFKGTVKRPKGQVARDVESVGGYLNAATSFDYTVYLTDMPSTQWKLGMDVLRDMAFEPALDPAELESEKDVVIAELQRGEDSPDSRIFQSLQAGTLKGTTYERPIIGYRETIRATTADTMRAYIRKHYQPQSMLLTVVGNVDPAEVRAEAERLFGGLTNDQNITPPAAIDARAFAHGPVVNVEHGPWKKVYLGVALPVPGLKALQAAQLDMLSQLLGGDPTALLYRTFKYEKQLVDDISVANYSFERVGMLYITAELDADKVETFWKELTTMLAGLKADAFTEQEFERARLNIEDGLYRSKETVAGLASKEGYFQFFSDGPQGEANYLQAVRDVERPQLEALIRDWLRPERLTVSVLLPEGTKAPALAATLKSTWPSKGKAAEEGNAAAVGKTETVDLGGGRKVVLIPDTTLPYTALDMVFSGGNALLDQNRQGLAALTASVLTKGTLKHDAPTLEAFQSDRAASLGASAGRRTFTLSLREPSRFDGDMFGLLHEVLTTPALAPDEVAREKRNQVASIRAREDQPLGLAFRHLTPFLFPGHSYGFYHLGQPETVEGFTRDDVKAFWARQAAQPWVMSVAGSFDREAVLRFAKSLPAPSGKPVSLDAPAWTPEKALDLRLPERNQAHLLLVFPTVGLAHKDTPALELLQSVLAGQSGLLFRDMRDKQGLGYTVTAMNWQSDLAGFMVLYIGTEPGKLEQAEAGFRKVIDQLHATALPDEELRRGKNQMRGDYYREHQRLGSRSSEAAMLTSQGYPLLFNREVIDKAEKLAPSDLERVARTYLDMNKVRVVKVLP | failed |
| MNDFSCPAIAFPSFLNPVIVHLGPIALYWYGLGYVVGILFVWWYAQKLLKKQSLWYANHPPMDKEKIGDFVVWSAISIVVGGRLGQVLVWDPIYYFSHPTAIITIWNGGMSFHGGLIGITIAMIWFARKNNIKIRAMFDIIAIGAPIGIGIVRICNFINQELWGNVTTHPWAVCFPLDPYYLPRHPSQLYEALMEGFLLFVILFILTFAFKALKRPGTVSGIFIIGYAIARSISEIYRAPQEDPEWFSTLFHSTGFTYGMALSLPMLFLGFYLLFQAFKDESTKNGHTQTKN | failed |
| MSPQSPSNSSISTDDQAGKNPAAAFGPNEWLVDEIYQQYLQDPNSVDRAWWDFFADYKPGAAAASAPAGTAAAGAAETTTPAPAAPTAAAPAAPAAPAPAAPAPAPAAPAPAAAPAVPKPAAAAPAPAAAKPAAAAPAQPKAAAATEAAEGPTFVPLRGPAAAVAKNMNASIEVPTATSVRAVPVKLLFDNRIVINNHLKRARGGKISFTHLIGYAMVQAIKAMPSMNWHYAEKDGKPTLVKPAHVNFGLAIDLVKPNGDRQLVVAGIKKAETLNFFEFWQAYEDIVRRARDGKLTMDDFTGVTVSLTNPGGLGTVHSVPRLMPGQSVIMGVGSMDYPAEFQGTSQDTLNKLGISKVMTLTSTYDHRVIQGAASGEFLRIVANFLLGEGGFYDEIFEALRIPYEPVRWLKDIDASHDDDVTKAARVFELIHSYRVRGHVMADTDPLEYRQRKHPDLDITEHGLTLWDLEREFAVGGFAGKSLMKLRDILGVLRDSYCRTTGIEFMHIQDPKQRKWIQDRIERSHSKPEREEQLRILRRLNAAEAFETFLQTKYVGQKRFSLEGGESVIPLLDAVIDSAAESRLDEVVIGMAHRGRLNVLANIVGKSYAQIFREFEGNLDPKSMHGSGDVKYHLGASGTFTGLDGEQIKVSLAANPSHLETVDPIIEGIARAKQDIINKGGTDFTVLPVALHGDAAFAGQGVVAETLNMSQLRGYRTGGTVHIVINNQVGFTAAPESSRSSMYATDVARMIEAPIFHVNGDDPEAVVRVARLAFEFRQAFNKDVVIDLICYRRRGHNESDNPAFTQPLMYDLIDKKRSVRKLYTESLIGRGDITLEEAEQALQDFQGQLEKVFTEVREAISTPGEAPAPEPQPEFPVAVPTAVSQEVVKRIAESQVNIPDHVTVHPRLLPQLQRRAAMIEDDTIDWGMGETLAIGSLLLEGTPVRLSGQDSRRGTFGQRHAVLIDRVTGEDFTPLQYLADDQARLNVYDSLLSEYAVMGFEYGYSLARPDALVMWEAQFGDFVNGAQTVVDEYISAAEQKWGQTSGVTLLLPHGYEGQGPDHSSARIERFLQLCAQNNMTVAQPTLPSNYFHLLRWQVHNPHHKPLVVFTPKSMLRLKAAASKTEEFTTGAFRPVIGDDTVDAAAVRKVVFCAGKLYYDLEAERKKRGATDAAAAETAIIRLERLYPLPGAELQAEIAKYPNAEKYLWAQEEPANQGAWPFIALNLIDHLDLAVGADVPHGERLRRISRPHSSSPAVGSAKRHQAEQEQLVREVFEA | failed |
| MSSSSPGEPLEPTDQDLDVLLKNLGNLVTPMALRVAATLRLVDHLLAGADTLAGLADRTDTHPQALSRLVRHLTVVGVLEGGEKQGRPLRPTRLGMLLADGHPAQQRAWLDLNGAVSHADLAFTGLLDVVRTGRPAYAGRYGRPFWEDLSADVALADSFDALMSCDEDLAYEAPADAYDWSAVRHVLDVGGGNGGMLAAIALRAPHLRGTLVELAGPAERARRRFADAGLADRVTVAEGDFFKPLPVTADVVLLSFVLLNWSDEDALTILRGCVRALEPGGRLLVLDRADVEGDGADRFFSTLLDLRMLTFMGGRVRTRDEVVDLAGSAGLALASERTSGSTTLPFDFSILEFTAVSEEAAPAAQASEALPAQE | not failed |
| MVKLGCSFSGKPGKEAGDQDGAAMDSVPLISPLDVSQLQPSFSDQVVINTQTEYQLTSADQPKKFADLEGQRLACSHSEEGRRLPTARMIAFAMALLGCVLIMYKAIWYDQFTCPDGFLLRHKICTPLTLEMYYTEMDPERHRSILAAIGAYPLSRKHGTEMPAVWGNNYRTAKEEHKGTTPAAMAVSTAAAAAAAEGTEPSGKSLDTREKEDPQKAEGVPSQPPK | failed |
| MSDWQMAEAWTLEEAIANIQQTEDTGKRYYAAWWFGKFRVQDERAVNALLAALKDETDRSPDGGYPLRRNAAKALGKLGNLAAVQPLIESLESPDYYVRESAAQSLEMLGDRQAIPALQALLAGGVAAAVKAEGKPHLVQPYEAVIEALGTIGATAAIAEIEPFLDHEFAKIRYAALRALYQLTQEAHYAEQLMEALNGNQLQLRRSALLDLGAIGYVPAGQAIAKAYAENSLKLISLKGILESHLQRTAETLDADGLQLLELMDSLL | failed |
| MKNIVAGILAHVDSGKTTLSEAMLYQTGRIRKLGRVDHQDTYLDTDSQEKDRGITIFSKQAELTYEDMHIALLDTPGHVDFGTEMERTLQVLDYAVLVINGMDGVQSHTETLWKLLERYEIPVFIFVNKMDMTGYDREYLMDNIRHRLSDGCVDFLCEDAGEHIAMCDENMLERFLETGENREDDIAKAVADRKLFPCYFGSALKNDGVAELLDGMNRYVTEPRRTDEFGARVFKIGRDDKGERLTYMKITGGTLRLKDVLTLTGRQGEETLEKVNQIRVYSGAKYDMVDHVTAGCVCAVPGLVNTYGRQGIGACPDGELPSLEPVLSYKVMYPTDVDAVTMVSKLRQLEEEDPLLQVQWNEAAGEIYIKVMGQVQLEVVAQMVRDRFGIAITYGQGRITYKETIAAPVMGVGHFEPLRHYAEVHLLLEPMENGSGMCFDSICSEDVLDKNWQRLILTHLQEREFRGVLTGSPITDMKITITAGRAHQKHTEGGDFRQATYRAVRQGLMMAESVLLEPVYAFKIEVPQEYAGRVLADIVKMSGSMDGQEIAGETTVITGHAPVYTMREYYSELTAFSRGTGRLQVDIDGYQPCHNTEEVLAERHYDPELDRFNPSSSVFCAHGAGYLVDWYDVYENMHVKEDPGFEISGQLGYTEDGDVTDIPVNRPGKSVSDMSITDEELSEIFARTFGGDYKDKDVALNGRFRRTTSEYKVNGTSSRGSDGTAGGGASAGTAGDSSNSGYRGNGQYNKSQSRDRQPGNGPVVGSRPADRGIATPGAFKRRKSGEDYVIVDGYNVIFAWDTLRELSEHNIDSARGKLMDILSNYQGYMNCHLIVVFDGYKVKDNKGERFPYDDIEVVYTKEGETADAHIEKLTHELARKHKVTVVTSDGLEQIVTMGQGAIRMSSRDFKLEVERVNEHLRENYLKND | failed |
| MKIAIIRKIPTRPEQISRPSHSARAGPETHCSMPCGFAASRKAGRIAVKETIKEIVMGMLVEGVWKDVWYDTKETKGHFKRSASQFRNWVTVDGAVGPSGEGGFEAEKDRYHLYVSFACPWAHRTLIFRKLKKLEDLISVSVVDPLMLENGWEFKPEGERTPGATQDHLFGSSTLWQVYTKADPTYSGRVTVPVLWDKKRGTIVSNESAEIIRMFNVAFNDLTGSDADYYPKALRAEIDALNDVIYDTVNNGVYKAGFATTQDAYQQNAVKVFETLDMLEDRLKDRRFLFGSEQTEADWRLFTTLVRFDPVYVGHFKCNIRRIHDYPHLTGYLRDLYQTPGVPDTVDMRHIKEHYYRSHRTINPTGIVPIGPELDLTMAHGREALS | failed |
| MDVSFEFEHYQVRLIKSSDAVTIANYFMRNRHHLAPWEPKRSHAFFTPEGWKQRLLQLVELHKHNLAFYFVVVDKNEHKIIGTVSYSNITRFPFHAGHVGYSLDSEYQGKGIMRRAVNVTIDWMFKAQNLHRIMAAYIPRNEKSAKVLAALGFVKEGEAKKYLYINGAWEDHILTSKINDDWKP | not failed |
